Measured values: the supplement of paper PMC9112550, “Optimization of the antimicrobial peptide Bac7 by deep mutational scanning” (BMC Biology, 2022)

Tested on: Escherichia coli TOP10
Experiment: shrunken log2 fold change of peptide-encoding DNA abundance (4.5 h post-induction vs induction); higher = less antimicrobial activity (less host growth inhibition)
Settings: time post-induction: 4.5 h; library: site-saturation at positions 5, 18, 19, 20
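Also: peptides expressed intracellularly from a pBAD plasmid library in pooled LB shake-flask culture, induced with 0.3% L-arabinose, DNA abundance read by NGS, three biological replicates, DESeq2 with apeglm shrinkage.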

## RRIRPRPPRLPRPRPRPSQCPRP
  shrunken log2 fold change: -0.985

## RRIRFRPPRLPRPRPRPPCTPRP
  shrunken log2 fold change: -0.228

## RRIRPRPPRLPRPRPRPHKTPRP
  shrunken log2 fold change: -0.0296

## RRIRFRPPRLPRPRPRPLSFPRP
  shrunken log2 fold change: 0.675

## RRIRPRPPRLPRPRPRPCFVPRP
  shrunken log2 fold change: -0.18

## RRIRNRPPRLPRPRPRPMCNPRP
  shrunken log2 fold change: -0.0631

## RRIRMRPPRLPRPRPRPWDHPRP
  shrunken log2 fold change: 0.0477

## RRIRQRPPRLPRPRPRPQNSPRP
  shrunken log2 fold change: -0.0328

## RRIRIRPPRLPRPRPRPRPVPRP
  shrunken log2 fold change: 0.371

## RRIRWRPPRLPRPRPRPSEEPRP
  shrunken log2 fold change: 0.129

## RRIRSRPPRLPRPRPRPPMDPRP
  shrunken log2 fold change: -0.0324

## RRIRWRPPRLPRPRPRPNYTPRP
  shrunken log2 fold change: -0.279

## RRIRKRPPRLPRPRPRPVAWPRP
  shrunken log2 fold change: 0.315

## RRIRVRPPRLPRPRPRPCAAPRP
  shrunken log2 fold change: 0.121

## RRIRKRPPRLPRPRPRPMRPPRP
  shrunken log2 fold change: 1.22

## RRIRVRPPRLPRPRPRPQTEPRP
  shrunken log2 fold change: -0.134

## RRIRMRPPRLPRPRPRPINIPRP
  shrunken log2 fold change: -0.0393

## RRIRNRPPRLPRPRPRPFCGPRP
  shrunken log2 fold change: -0.108

## RRIRERPPRLPRPRPRPVWEPRP
  shrunken log2 fold change: 0.239

## RRIRMRPPRLPRPRPRPLNNPRP
  shrunken log2 fold change: 0.0119

## RRIRSRPPRLPRPRPRPCTDPRP
  shrunken log2 fold change: -0.11

## RRIRVRPPRLPRPRPRPWWWPRP
  shrunken log2 fold change: 0.0767

## RRIRARPPRLPRPRPRPVDHPRP
  shrunken log2 fold change: -0.0253

## RRIRERPPRLPRPRPRPNQFPRP
  shrunken log2 fold change: -0.525

## RRIRHRPPRLPRPRPRPARSPRP
  shrunken log2 fold change: 0.0188

## RRIRIRPPRLPRPRPRPYLHPRP
  shrunken log2 fold change: -1.61

## RRIRDRPPRLPRPRPRPRNKPRP
  shrunken log2 fold change: -0.014

## RRIRWRPPRLPRPRPRPMIHPRP
  shrunken log2 fold change: -0.0666

## RRIRARPPRLPRPRPRPDFYPRP
  shrunken log2 fold change: 0.0576

## RRIRWRPPRLPRPRPRPSRMPRP
  shrunken log2 fold change: 0.0635

## RRIRYRPPRLPRPRPRPIPIPRP
  shrunken log2 fold change: -0.168

## RRIRSRPPRLPRPRPRPDPMPRP
  shrunken log2 fold change: -0.0673

## RRIRTRPPRLPRPRPRPYDCPRP
  shrunken log2 fold change: -0.304

## RRIRVRPPRLPRPRPRPDKYPRP
  shrunken log2 fold change: -0.277

## RRIRCRPPRLPRPRPRPFTLPRP
  shrunken log2 fold change: -0.048

## RRIRSRPPRLPRPRPRPRAHPRP
  shrunken log2 fold change: 0.409

## RRIRQRPPRLPRPRPRPFCQPRP
  shrunken log2 fold change: 0.53

## RRIRYRPPRLPRPRPRPWSVPRP
  shrunken log2 fold change: -0.554

## RRIRPRPPRLPRPRPRPGIMPRP
  shrunken log2 fold change: -0.2

## RRIRYRPPRLPRPRPRPTIQPRP
  shrunken log2 fold change: -1.09

## RRIRCRPPRLPRPRPRPTMKPRP
  shrunken log2 fold change: -0.246

## RRIRDRPPRLPRPRPRPQQCPRP
  shrunken log2 fold change: -0.00965

## RRIRQRPPRLPRPRPRPKLTPRP
  shrunken log2 fold change: -0.0707

## RRIRFRPPRLPRPRPRPGNRPRP
  shrunken log2 fold change: 1.63

## RRIRVRPPRLPRPRPRPRYMPRP
  shrunken log2 fold change: -0.528

## RRIRRRPPRLPRPRPRPYSEPRP
  shrunken log2 fold change: -0.154

## RRIRSRPPRLPRPRPRPWKCPRP
  shrunken log2 fold change: -0.0598

## RRIRPRPPRLPRPRPRPVPGPRP
  shrunken log2 fold change: 0.202

## RRIRKRPPRLPRPRPRPDRSPRP
  shrunken log2 fold change: -0.231

## RRIRRRPPRLPRPRPRPQGRPRP
  shrunken log2 fold change: 0.544

## RRIRPRPPRLPRPRPRPDGLPRP
  shrunken log2 fold change: -0.117

## RRIRNRPPRLPRPRPRPANIPRP
  shrunken log2 fold change: -0.0793

## RRIRFRPPRLPRPRPRPDNQPRP
  shrunken log2 fold change: -0.834

## RRIRPRPPRLPRPRPRPHARPRP
  shrunken log2 fold change: 0.111

## RRIRYRPPRLPRPRPRPMCMPRP
  shrunken log2 fold change: -0.214

## RRIRIRPPRLPRPRPRPWHPPRP
  shrunken log2 fold change: -0.383

## RRIRPRPPRLPRPRPRPTESPRP
  shrunken log2 fold change: -0.041

## RRIRLRPPRLPRPRPRPPQVPRP
  shrunken log2 fold change: 0.162

## RRIRIRPPRLPRPRPRPWSWPRP
  shrunken log2 fold change: -0.0152

## RRIRIRPPRLPRPRPRPMWYPRP
  shrunken log2 fold change: -0.554

## RRIRDRPPRLPRPRPRPKMEPRP
  shrunken log2 fold change: -0.00783

## RRIRQRPPRLPRPRPRPLMCPRP
  shrunken log2 fold change: -0.0972

## RRIRTRPPRLPRPRPRPREEPRP
  shrunken log2 fold change: 0.368

## RRIRSRPPRLPRPRPRPHDDPRP
  shrunken log2 fold change: -0.114

## RRIRLRPPRLPRPRPRPPWVPRP
  shrunken log2 fold change: 0.344

## RRIRMRPPRLPRPRPRPSWHPRP
  shrunken log2 fold change: -0.103

## RRIRRRPPRLPRPRPRPKFPPRP
  shrunken log2 fold change: 0.361

## RRIRYRPPRLPRPRPRPECTPRP
  shrunken log2 fold change: 0.0109

## RRIRTRPPRLPRPRPRPGDYPRP
  shrunken log2 fold change: 0.142

## RRIRNRPPRLPRPRPRPWFMPRP
  shrunken log2 fold change: 0.0336

## RRIRHRPPRLPRPRPRPVIGPRP
  shrunken log2 fold change: -0.0297

## RRIRQRPPRLPRPRPRPDSNPRP
  shrunken log2 fold change: -0.382

## RRIRPRPPRLPRPRPRPKCYPRP
  shrunken log2 fold change: -0.193

## RRIRQRPPRLPRPRPRPAIIPRP
  shrunken log2 fold change: -0.0528

## RRIRIRPPRLPRPRPRPDDIPRP
  shrunken log2 fold change: -0.151

## RRIRRRPPRLPRPRPRPIICPRP
  shrunken log2 fold change: 0.0738

## RRIRGRPPRLPRPRPRPPFWPRP
  shrunken log2 fold change: 1.09

## RRIRERPPRLPRPRPRPFTTPRP
  shrunken log2 fold change: -0.381

## RRIRKRPPRLPRPRPRPHDYPRP
  shrunken log2 fold change: 0.0206

## RRIRKRPPRLPRPRPRPMLRPRP
  shrunken log2 fold change: 0.308

## RRIRDRPPRLPRPRPRPHGTPRP
  shrunken log2 fold change: 0.0175

## RRIRSRPPRLPRPRPRPNEMPRP
  shrunken log2 fold change: -0.252

## RRIRCRPPRLPRPRPRPHYQPRP
  shrunken log2 fold change: -1.29

## RRIRERPPRLPRPRPRPLEHPRP
  shrunken log2 fold change: -0.277

## RRIRYRPPRLPRPRPRPWFSPRP
  shrunken log2 fold change: -0.346

## RRIRPRPPRLPRPRPRPFNWPRP
  shrunken log2 fold change: -0.118

## RRIRYRPPRLPRPRPRPGVKPRP
  shrunken log2 fold change: -0.188

## RRIRYRPPRLPRPRPRPYYEPRP
  shrunken log2 fold change: -0.28

## RRIRPRPPRLPRPRPRPYCGPRP
  shrunken log2 fold change: -0.148

## RRIRMRPPRLPRPRPRPFAVPRP
  shrunken log2 fold change: -0.109

## RRIRDRPPRLPRPRPRPIWAPRP
  shrunken log2 fold change: -0.0982

## RRIRDRPPRLPRPRPRPDGQPRP
  shrunken log2 fold change: 0.705

## RRIRYRPPRLPRPRPRPRAHPRP
  shrunken log2 fold change: -0.121

## RRIRMRPPRLPRPRPRPYYGPRP
  shrunken log2 fold change: 0.0528

## RRIRPRPPRLPRPRPRPCGEPRP
  shrunken log2 fold change: -0.0188

## RRIRVRPPRLPRPRPRPPGFPRP
  shrunken log2 fold change: 0.842

## RRIRMRPPRLPRPRPRPAMDPRP
  shrunken log2 fold change: 1.27

## RRIRYRPPRLPRPRPRPAENPRP
  shrunken log2 fold change: -0.317

## RRIRGRPPRLPRPRPRPYWIPRP
  shrunken log2 fold change: -0.311

## RRIRIRPPRLPRPRPRPMNKPRP
  shrunken log2 fold change: -0.627

## RRIRHRPPRLPRPRPRPVAKPRP
  shrunken log2 fold change: -0.17

## RRIRLRPPRLPRPRPRPYHNPRP
  shrunken log2 fold change: -0.712

## RRIRIRPPRLPRPRPRPDGTPRP
  shrunken log2 fold change: -0.303

## RRIRFRPPRLPRPRPRPMNLPRP
  shrunken log2 fold change: -0.623

## RRIRGRPPRLPRPRPRPHCEPRP
  shrunken log2 fold change: 0.22

## RRIRKRPPRLPRPRPRPMQWPRP
  shrunken log2 fold change: 0.263

## RRIRHRPPRLPRPRPRPDWRPRP
  shrunken log2 fold change: 0.147

## RRIRDRPPRLPRPRPRPDWGPRP
  shrunken log2 fold change: 0.161

## RRIRSRPPRLPRPRPRPMQWPRP
  shrunken log2 fold change: -0.145

## RRIRWRPPRLPRPRPRPYFIPRP
  shrunken log2 fold change: -0.647

## RRIRWRPPRLPRPRPRPPMQPRP
  shrunken log2 fold change: 0.322

## RRIRYRPPRLPRPRPRPVSCPRP
  shrunken log2 fold change: -0.0731

## RRIRMRPPRLPRPRPRPYYSPRP
  shrunken log2 fold change: -0.0674

## RRIRRRPPRLPRPRPRPIPGPRP
  shrunken log2 fold change: 0.292

## RRIRGRPPRLPRPRPRPKSEPRP
  shrunken log2 fold change: 0.9

## RRIRLRPPRLPRPRPRPPNVPRP
  shrunken log2 fold change: 0.0883

## RRIRARPPRLPRPRPRPETHPRP
  shrunken log2 fold change: 0.56

## RRIRDRPPRLPRPRPRPQPAPRP
  shrunken log2 fold change: 0.559

## RRIRTRPPRLPRPRPRPGVEPRP
  shrunken log2 fold change: -0.0469

## RRIRERPPRLPRPRPRPPDEPRP
  shrunken log2 fold change: -0.0361

## RRIRKRPPRLPRPRPRPRYNPRP
  shrunken log2 fold change: -0.312

## RRIRVRPPRLPRPRPRPCKAPRP
  shrunken log2 fold change: 0.033

## RRIRLRPPRLPRPRPRPQIHPRP
  shrunken log2 fold change: -0.154

## RRIRERPPRLPRPRPRPGYPPRP
  shrunken log2 fold change: -0.216

## RRIRVRPPRLPRPRPRPGIQPRP
  shrunken log2 fold change: 0.0729
